From paper PMC5652782

Target: eIF4E (UniProt P63074)
Test: anti-eIF4E IP, anti-histidine blot
Conditions: reference: wild type Hsp27; sites S15,S78,S82

Hsp27 (from UniProt P04792) 3A (S15A/S78A/S82A)
binding against the reference: weaker
